Reference: patent US20200255474

Molecular target: recombinant PHB2
Sequence (chain, as listed by the source): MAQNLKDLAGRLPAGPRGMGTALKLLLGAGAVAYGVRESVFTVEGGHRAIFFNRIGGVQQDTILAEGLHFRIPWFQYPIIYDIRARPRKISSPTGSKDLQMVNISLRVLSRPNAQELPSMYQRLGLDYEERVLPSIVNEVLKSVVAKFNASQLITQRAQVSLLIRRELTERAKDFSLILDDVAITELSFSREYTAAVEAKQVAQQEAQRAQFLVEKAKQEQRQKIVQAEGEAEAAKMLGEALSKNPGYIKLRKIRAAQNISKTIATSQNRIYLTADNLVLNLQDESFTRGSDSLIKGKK

Protein | phosphorylation of PHB2 (Phos-tag SDS-PAGE), molar ratio PHB2:MK5=1:0.25 [% phosphorylation] | phosphorylation of PHB2 (Phos-tag SDS-PAGE), molar ratio PHB2:MK=1:2 or more | phosphorylation of PHB2 (Phos-tag SDS-PAGE), molar ratio PHB2:TTK=1:2 or greater | phosphorylation of PHB2 (Phos-tag SDS-PAGE), molar ratio TTK:PHB2 1:1 [% phosphorylation]
recombinant MK5 (protein) MSEESDMDKAIKETSILEEYSINWTQKLGAGISGPVRVCVKKSTQERFALKILLDRPKARNEVRLHMMCATHPNIVQIIEVFANSVQFPHESSPRARLLIVMEMMEGGELFHRISQHRHFTEKQASQVTKQIALALRHCHLLNIAHRDLKPENLLFKDNSLDAPVKLCDFGFAKIDQGDLMTPQFTPYYVAPQVLEAQRRHQKEKSGIIPTSPTPYTYNKSCDLWSLGVIIYVMLCGYPPFYSKHHSRTIPKDMRRKIMTGSFEFPEEEWSQISEMAKDVVRKLLKVKPEERLTIEGVLDHPWLNSTEALDNVLPSAQLMMDKAVVAGIQQAHAEQLANMRIQDLKVSLKPLHSVNNPILRKRKLLGTKPKDSVYIHDHENGAEDSNVALEKLRDVIAQCILPQAGKGENEDEKLNEVMQEAWKYNRECKLLRDTLQSFSWNGRGFTDKVDRLKLAEIVKQVIEEQTTSHESQ | 6.5 | a band for 75% phosphorylation was detected | – | –
recombinant TTK (protein) MESEDLSGRELTIDSIMNKVRDIKNKFKNEDLTDELSLNKISADTTDNSGTVNQIMMMANNPEDWLSLLLKLEKNSVPLSDALLNKLIGRYSQAIEALPPDKYGQNESFARIQVRFAELKAIQEPDDARDYFQMARANCKKFAFVHISFAQFELSQGNVKKSKQLLQKAVERGAVPLEMLEIALRNLNLQKKQLLSEEEKKNLSASTVLTAQESFSGSLGHLQNRNNSCDSRGQTTKARFLYGENMPPQDAEIGYRNSLRQTNKTKQSCPFGRVPVNLLNSPDCDVKTDDSVVPCFMKRQTSRSECRDLVVPGSKPSGNDSCELRNLKSVQNSHFKEPLVSDEKSSELIITDSITLKNKTESSLLAKLEETKEYQEPEVPESNQKQWQSKRKSECINQNPAASSNHWQIPELARKVNTEQKHTTFEQPVFSVSKQSPPISTSKWFDPKSICKTPSSNTLDDYMSCFRTPVVKNDFPPACQLSTPYGQPACFQQQQHQILATPLQNLQVLASSSANECISVKGRIYSILKQIGSGGSSKVFQVLNEKKQIYAIKYVNLEEADNQTLDSYRNEIAYLNKLQQHSDKIIRLYDYEITDQYIYMVMECGNIDLNSWLKKKKSIDPWERKSYWKNMLEAVHTIHQHGIVHSDLKPANFLIVDGMLKLIDFGIANQMQPDTTSVVKDSQVGTVNYMPPEAIKDMSSSRENGKSKSKISPKSDVWSLGCILYYMTYGKTPFQQIINQISKLHAIIDPNHEIEFPDIPEKDLQDVLKCCLKRDPKQRISIPELLAHPYVQIQTHPVNQMAKGTTEEMKYVLGQLVGLNSPNSILKAAKTLYEHYSGGESHNSSSSKTFEKKRGKK | – | – | a band for 75% phosphorylation was clearly detected | 28
